The RNAGym collection of RNA variant scans (doi:10.7554/elife.90254)

B1: LINE1-full (parent)
chain: UACGUAGGUGGUUUUCCCCUGAUAGUGCUAAGGGGGCCUGGAAGUUUGGACUGGGCAGAGCUCAACACAGCGUGGCAAAGUGGCUGUGGCUAGACUGCCUCUCUGGAUUCCUCGUCACUCAGCAGGGCAUCUCUGAGAGAAAUGCC

Variants of: B1
Test: self-cleavage, relative activity (ratio to wild type); higher = more cleavage; in vitro, sequencing; the parent is a self-cleaving ribozyme

First: A69U A141G
Second: A69U C99G
The self-cleavage of the first is lower: 0.07 for the first, 0.09 for the second.

Going from A69U C101U to A69U C120U, the self-cleavage rises from 0.03 to 0.07.

Compared with A69U C131A, A69U C131U is lower in self-cleavage: 0.07 for the first, 0.03 for the second.

First: A69U C146U
Second: A69U G72A
The self-cleavage of the first is higher: 0.08 for the first, 0.04 for the second.

Compared with A69U G89A, A69U G89U is lower in self-cleavage: 0.04 for the first, 0.02 for the second.

A69U G93A and A69U G97A are the same in self-cleavage: 0.03 for the first, 0.03 for the second.

First: A69U G114U
Second: A69U G127C
The self-cleavage of the first is lower: 0.06 for the first, 0.12 for the second.

Compared with A69U U73A, A69U U73C is higher in self-cleavage: 0.04 for the first, 0.05 for the second.

Compared with A69U U73G, A69U U85A is higher in self-cleavage: 0.31 for the first, 0.5 for the second.

Compared with A69U U87A, A69U U87C is higher in self-cleavage: 0.04 for the first, 0.06 for the second.

First: A69U U100C
Second: A69U U115A
The self-cleavage of the first is higher: 0.08 for the first, 0.07 for the second.

Compared with A69U U115C, A69U U130A is higher in self-cleavage: 0.07 for the first, 0.09 for the second.

Going from A69U U130C to A69U U132A, the self-cleavage rises from 0.05 to 0.06.

Going from A69U U132C to A69U U134C, the self-cleavage rises from 0.07 to 0.09.

Going from G70A A92G to G70A A107G, the self-cleavage rises from 0.04 to 0.08.

First: G70A A124C
Second: G70A A129G
The self-cleavage of the first is higher: 0.21 for the first, 0.09 for the second.

Compared with G70A A136G, G70A A138C is higher in self-cleavage: 0.11 for the first, 0.32 for the second.

Going from G70A A140G to G70A A142G, the self-cleavage rises from 0.06 to 0.11.

First: G70A C128A
Second: G70A U73A
The self-cleavage of the first is lower: 0.04 for the first, 0.09 for the second.

Going from G70A U85G to G70A U91A, the self-cleavage rises from 0.01 to 0.1.

Compared with G70A U100C, G70A U115G is lower in self-cleavage: 0.29 for the first, 0.11 for the second.

Going from G70A U132G to G70A U134C, the self-cleavage falls from 0.19 to 0.15.

Compared with G70C A77U, G70C U112C is higher in self-cleavage: 0.09 for the first, 0.14 for the second.

First: G70U A79G
Second: G70U A121G
The self-cleavage of the first is lower: 0.03 for the first, 0.27 for the second.

First: G70U A138G
Second: G70U A140G
The self-cleavage of the first is higher: 0.1 for the first, 0.04 for the second.

Compared with G70U C90G, G70U U81C is higher in self-cleavage: 0.02 for the first, 0.3 for the second.

First: G70U U130C
Second: C71A
The self-cleavage of the first is lower: 0.08 for the first, 0.2 for the second.

Compared with C71A A77G, C71A A78G is higher in self-cleavage: 0.18 for the first, 0.19 for the second.

Going from C71A A117G to C71A A124G, the self-cleavage falls from 0.15 to 0.13.

Compared with C71A A140G, C71A C133U is lower in self-cleavage: 0.23 for the first, 0.08 for the second.

Going from C71A G93U to C71A U73C, the self-cleavage rises from 0.03 to 0.31.

Going from C71A U96A to C71A U134A, the self-cleavage rises from 0.09 to 0.18.

First: C71G
Second: C71G A124G
The self-cleavage of the first is higher: 0.27 for the first, 0.25 for the second.

First: C71G A136G
Second: C71G A141G
The self-cleavage of the first is lower: 0.28 for the first, 0.4 for the second.

Compared with C71G U130C, C71U is higher in self-cleavage: 0.45 for the first, 0.86 for the second.

First: C71U A77U
Second: C71U A79G
The self-cleavage of the first is higher: 0.7 for the first, 0.2 for the second.

Compared with C71U A117G, C71U A124G is lower in self-cleavage: 0.64 for the first, 0.28 for the second.

First: C71U A124U
Second: C71U A129G
The self-cleavage of the first is higher: 1 for the first, 0.91 for the second.

First: C71U A138G
Second: C71U A141G
The self-cleavage of the first is higher: 1.21 for the first, 0.68 for the second.

First: C71U A141U
Second: C71U C101A
The self-cleavage of the first is higher: 1.46 for the first, 1.14 for the second.

Going from C71U C146U to C71U G144A, the self-cleavage rises from 0.66 to 1.27.

First: C71U U73A
Second: C71U U73C
The self-cleavage of the first is higher: 0.31 for the first, 0.1 for the second.

Compared with C71U U81A, C71U U81C is lower in self-cleavage: 0.88 for the first, 0.74 for the second.

Going from C71U U85A to C71U U85C, the self-cleavage rises from 0.03 to 0.06.

Compared with C71U U100A, C71U U100C is higher in self-cleavage: 0.04 for the first, 1.31 for the second.

Going from C71U U102C to C71U U109A, the self-cleavage rises from 0.18 to 0.41.

Compared with C71U U115A, C71U U119C is higher in self-cleavage: 0.85 for the first, 1.18 for the second.

First: C71U U130A
Second: C71U U134A
The self-cleavage of the first is higher: 1 for the first, 0.36 for the second.

Going from G72A A92U to G72A A94G, the self-cleavage falls from 0.69 to 0.33.

Compared with G72A A107G, G72A A121G is lower in self-cleavage: 1.36 for the first, 1.02 for the second.

First: G72A A121U
Second: G72A A124G
The self-cleavage of the first is higher: 1.52 for the first, 0.52 for the second.

Compared with G72A A124U, G72A A129G is higher in self-cleavage: 1.22 for the first, 1.67 for the second.

Compared with G72A A138G, G72A A140G is lower in self-cleavage: 1.51 for the first, 1.16 for the second.

Going from G72A A141G to G72A A141U, the self-cleavage falls from 1.54 to 1.42.

Compared with G72A A142G, G72A C84U is lower in self-cleavage: 1.27 for the first, 0.19 for the second.

First: G72A C120U
Second: G72A G83A
The self-cleavage of the first is lower: 1.31 for the first, 1.53 for the second.

First: G72A G105U
Second: G72A G135U
The self-cleavage of the first is higher: 1.29 for the first, 1.2 for the second.

First: G72A U85A
Second: G72A U85G
The self-cleavage of the first is lower: 0.07 for the first, 0.21 for the second.

Compared with G72A U87A, G72A U100A is higher in self-cleavage: 0.07 for the first, 0.18 for the second.

First: G72A U100C
Second: G72A U102A
The self-cleavage of the first is lower: 0.32 for the first, 1.66 for the second.

Going from G72A U108C to G72A U109A, the self-cleavage falls from 1.54 to 1.37.

Going from G72A U132C to G72A U143C, the self-cleavage rises from 1.13 to 1.65.

Going from G72C A77G to G72C A94G, the self-cleavage falls from 2.28 to 0.18.

First: G72C C111U
Second: G72C U73C
The self-cleavage of the first is lower: 1.1 for the first, 1.13 for the second.

Compared with G72C U112C, G72C U134A is lower in self-cleavage: 0.98 for the first, 0.97 for the second.

Compared with G72U A77G, G72U A94G is lower in self-cleavage: 2.19 for the first, 0.46 for the second.

Compared with G72U A107C, G72U A138G is lower in self-cleavage: 2.15 for the first, 1.55 for the second.

Compared with G72U A140G, G72U C76U is higher in self-cleavage: 0.6 for the first, 2.1 for the second.

First: G72U C113U
Second: G72U C116A
The self-cleavage of the first is lower: 1.15 for the first, 1.23 for the second.

Going from G72U C145G to G72U U73A, the self-cleavage rises from 0.94 to 1.33.

Going from G72U U87C to G72U U130A, the self-cleavage rises from 0.32 to 1.07.

First: G72U U132C
Second: U73A
The self-cleavage of the first is lower: 1.11 for the first, 1.46 for the second.

Going from U73A A77U to U73A A79C, the self-cleavage rises from 0.69 to 2.16.

First: U73A A79G
Second: U73A A94U
The self-cleavage of the first is higher: 1.2 for the first, 0.27 for the second.

Compared with U73A A117C, U73A A117G is lower in self-cleavage: 1.99 for the first, 1.4 for the second.

Compared with U73A A121G, U73A A121U is lower in self-cleavage: 1.93 for the first, 1.28 for the second.

Going from U73A A124C to U73A A124G, the self-cleavage falls from 2.02 to 1.03.

Compared with U73A A129G, U73A A129U is higher in self-cleavage: 1.67 for the first, 1.7 for the second.

Compared with U73A A138G, U73A A138U is lower in self-cleavage: 1.75 for the first, 1.72 for the second.

First: U73A A140G
Second: U73A C76U
The self-cleavage of the first is lower: 1.69 for the first, 2.51 for the second.

Going from U73A C98U to U73A C110A, the self-cleavage rises from 0.32 to 0.94.

Compared with U73A C113A, U73A C123U is higher in self-cleavage: 0.23 for the first, 1.3 for the second.

First: U73A G80A
Second: U73A G82A
The self-cleavage of the first is higher: 2.16 for the first, 1.74 for the second.

Work on U73A G82U yielded a self-cleavage of 1.65.
